Patent publication US20190256595A1 (INSTITUT NATIONAL DE LA SANT ET DE LA RECHERCH M DICAL …, published 2019)

T1: Flag-tagged CD160-TM isoform expressed on HEK cells (human)
T1 construct: In the immunoprecipitation the protein came from a 1% NP40 lysate of these cells; Bands were read as mono-, di- and quadrimeric forms; also called HEK-CD160TM; Flag-tagged CD160TM receptor; not shown: Flag tag
T1 chain: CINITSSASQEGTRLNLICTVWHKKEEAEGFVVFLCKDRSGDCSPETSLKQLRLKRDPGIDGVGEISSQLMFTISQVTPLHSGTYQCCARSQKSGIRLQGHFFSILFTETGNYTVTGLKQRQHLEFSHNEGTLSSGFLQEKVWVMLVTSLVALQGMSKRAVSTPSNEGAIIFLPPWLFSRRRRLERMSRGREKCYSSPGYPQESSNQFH

T2: CD160-TM isoform (CD160 transmembrane isoform) (human)
T2 chain: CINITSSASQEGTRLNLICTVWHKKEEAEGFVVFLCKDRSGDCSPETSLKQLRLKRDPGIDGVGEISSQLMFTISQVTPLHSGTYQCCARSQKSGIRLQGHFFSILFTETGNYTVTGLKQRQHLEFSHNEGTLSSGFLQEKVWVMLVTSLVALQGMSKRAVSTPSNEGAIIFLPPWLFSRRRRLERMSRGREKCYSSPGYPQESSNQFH

T3: recombinant soluble CD160-His Tag (human, UniProt O95971 26-160)
T3 construct: also called sCD160; CD160 soluble isoform; not shown: His tag
T3 sequence: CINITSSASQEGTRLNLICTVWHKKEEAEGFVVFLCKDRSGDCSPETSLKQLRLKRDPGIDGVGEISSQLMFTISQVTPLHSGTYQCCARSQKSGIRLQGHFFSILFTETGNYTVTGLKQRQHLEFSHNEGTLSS

T4: CD160 GPI-anchored isoform expressed on CHO cells (human, UniProt O95971 26-160, GPI anchor at the C terminus end)
T4 construct: also called CHO-CD160-GPI
T4 sequence: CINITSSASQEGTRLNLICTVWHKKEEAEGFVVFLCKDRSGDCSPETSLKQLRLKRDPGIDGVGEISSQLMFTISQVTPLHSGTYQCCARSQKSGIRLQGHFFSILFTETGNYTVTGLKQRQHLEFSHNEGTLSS


Experiments:
[1] = molecular target: T1, Flag-tagged CD160-TM isoform expressed …; assay: flow cytometry on HEK-CD160TM cells
Procedure: (§1) CHO and HEK transfected cells were labelled with the anti-CD160-GPI mAb CL1-R2 or BY55, the fully human A12 or B6 antibody or their corresponding isotypic control IgG. […] Cell acquisition was performed on a CytoFlex cytometer and results were analysed with FlowJo software.
(§2) After selection on HEK-CD160TM cells, A12 and B6 specificity for CD160TM isoform was first verified by flow cytometry on both CD160-GPI and CD160TM expressing transfectants. As shown on FIG. 1, a positive labelling was obtained with A12 and B6 antibodies on HEK-CD160TM cells but not on CHO-CD160-GPI cells. Conversely, the anti-CD160-GPI mAb CL1-R2 or BY55 gave a positive labelling only on CD160-GPI-expressing cells, ruling out the possibility that A12 and B6 negativity was linked to the non-expression of CD160-GPI on CHO transfectants.

[2] = molecular target: T2, CD160-TM isoform (CD160 transmembrane …); assay: flow cytometry on IL2-activated human PBMC, gated CD3-CD56+ NK cells
Procedure: as §1
For PBMC, CD160 labelling was performed as above. Following washes and addition of normal mouse serum, cells were incubated with a mix of CD8-FITC, CD56-PCS, CD3-APC and CD4-PC7 mAbs. After cell acquisition, analyses were performed to distinguish the CD3⁺CD4⁺ and CD3⁺CD8⁺ T lymphocytes, and the CD3⁻CD56⁺ NK cells within the lymphocytes population.

[3] = molecular target: T3, recombinant soluble CD160-His Tag; assay: sandwich ELISA: coated antibody, soluble CD160-His, anti-His-HRP
Procedure: FIG. 4: sCD160 is recognized by the antibodies CL1-R2, R&D 6700 and RB312 but not A12. 1 ug per well of antibody was coated overnight on a 96 well maxisorb plate. After saturation with PBS-5%BSA, lOng of recombinant soluble CD160-His Tag were added to each well and incubated 2h at room temperature. After washing, revelation was done with anti-His-HRP then TMB substrate.

[4] = molecular target: T4, CD160 GPI-anchored isoform expressed on …; assay: flow cytometry on CHO-CD160-GPI cells
Procedure: as §1, §2

[5] = molecular target: T1, Flag-tagged CD160-TM isoform expressed …; assay: immunoprecipitation from HEK-CD160TM lysate, anti-Flag Western blot, non-reducing
Procedure: FIG. 3: Assessment of A12 specificity by immunoprecipitation. Post-nuclear lysates were prepared from HEK-CD160TM cells and subjected to immunoprecipitation with either mouse (mu IgG) or human (hu Ig) isotypic control IgG, chimeric murine A12 (mu A12) or fully human A12 (hu A12) antibody. […] Arrows indicate CD160TM-related signals.
HEK-CD160TM cells, that express a Flag-tagged version of CD160TM isoform, were lysed in 1% NP40 lysis buffer. Post-nuclear lysates were prepared and subjected to immuno-precipitation with the fully human A12 antibody or mouse chimeric A12. Human and mouse IgG were used as negative controls, respectively. Immune complexes were further collected with protein G Sepharose beads. Following washes, non-reducing sample buffer (devoid of reducing agent) was added and samples were finally heat-denatured. Proteins were separated by SDS-10% PAGE, electrically transferred on a nitrocellulose membrane and subjected to immuno-blotting with and anti-Flag mAb plus HRP-coupled goat anti-mouse IgGs. Revelation was performed by enhanced chemiluminescence and images acquired with an ImageQuant LAS device.

[6] = molecular target: T3, recombinant soluble CD160-His Tag; assay: sandwich ELISA: coated antibody, soluble CD160-His, anti-His-HRP (data not shown)

Binder | binding result [1] | binding result [2] | binding result [3] | binding result [4] | binding result [5] | binding result [6]
A12 antibody (fully human A12 antibody) (antibody, human IgG1, V domains shown, Fully human aglycosylated antibody selected by phage display on HEK-CD160TM cells; also called hu A12) VH: EVQLVESGGSLVKPGGSLRLSCAASGFTFSNYSMNWVRQAPGKGLEWISYIYGSSRYISYADFVKGRFTISRDNATNSLYLQMNSLRAEDTAVYYCVRSYYGGMDVWGRGTLVTVSS VL: QSVLTQPASVSGSPGQSITISCAGTSSDVGGYYGVSWYQQHPGKAPKLMIYYDSYRPSGVSNRFSGSKSGNTASLTISGLQAEDEADYYCSSSTYYSTRVFGGGTKLEK | binds | binds | no binding | no binding | – | –
murine chimeric version of A12 antibody (antibody, V domains shown, also called muA12; mu A12) VH: EVQLVESGGSLVKPGGSLRLSCAASGFTFSNYSMNWVRQAPGKGLEWISYIYGSSRYISYADFVKGRFTISRDNATNSLYLQMNSLRAEDTAVYYCVRSYYGGMDVWGRGTLVTVSS VL: QSVLTQPASVSGSPGQSITISCAGTSSDVGGYYGVSWYQQHPGKAPKLMIYYDSYRPSGVSNRFSGSKSGNTASLTISGLQAEDEADYYCSSSTYYSTRVFGGGTKLEK | – | – | – | – | binds | –
B6 antibody (fully human B6 antibody) (antibody, human IgG1, V domains shown, From the same phage display selection as A12) VH: EVQLVESGGSLVKPGGSLRLSCAASGFTFSNYYMNWVRQAPGKGLEWISGIYGSSRYINYADFVKGRFTISRDNATNSLYLQMNSLRAEDTAVYYCVRSYYGGMDVWGRGTLVTVSS VL: QSVLTQPASVSGSPGQSITISCAGTSSDVGGYSYVSWYQQHPGKAPKLMIYYDSYRPSGVSNRFSGSKSGNTASLTISGLQAEDEADYYCSSYTYYSTRVFGGGTKLEK | binds | – | – | no binding | – | no binding
